{"source": "the DeepSol protein solubility set"}
{"test": "soluble on expression in E. coli; label from the status in PepcDB or PDB records"}
{"sequence": "MRLFIAEKPSLARAIADVLPKPHRKGDGFIECGNGQVVTWCIGHLLEQAQPDAYDSRYARWNLADLPIVPEKWQLQPRPSVTKQLNVIKRFLHEASEIVHAGDPDREGQLLVDEVLDYLQLAPEKRQQVQRCLINDLNPQAVERAIDRLRSNSEFVPLCVSALARARADWLYGINMTRAYTILGRNAGYQGVLSVGRVQTPVLGLVVRRDEEIENFVAKDFFEVKAHIVTPADERFTAIWQPSEACEPYQDEEGRLLHRPLAEHVVNRISGQPAIVTSYNDKRESESAPLPFSLSALQIEAAKRFGLSAQNVLDICQKLYETHKLITYPRSDCRYLPEEHFAGRHAVMNAISVHAPDLLPQPVVDPDIRNRCWDDKKVDAHHAIIPTARSSAINLTENEAKVYNLIARQYLMQFCPDAVFRKCVIELDIAKGKFVAKARFLAEAGWRTLLGSKERDEENDGTPLPVVAKGDELLCEKGEVVERQTQPPRHFTDATLLSAMTGIARFVQDKDLKKILRATDGLGTEATRAGIIELLFKRGFLTKKGRYIHSTDAGKALFHSLPEMATRPDMTAHWESVLTQISEKQCRYQDFMQPLVGTLYQLIDQAKRTPVRQFRGIVAPGSGGSADKKKAAPRKRSAKKSPPADEVGSGAIAHHHHHH", "soluble on expression in E. coli": "soluble"}
{"sequence": "MRALALDVGLKRIGVALCIDKKIALPLDAVLRKNRNQAANEIKNLLKIHEISLLIVGIPKGGSSEEEMTRRIKHFVSLLEFDKEICFVDESGTSKEALGYGVANTRKKDGKLDSLSAFIMIKDYFALLEHHHHHH", "soluble on expression in E. coli": "not soluble"}
{"sequence": "MSLWPQMQYRQLQLAREKLLERLARKRNSTVITLIHRQESIGLFGIPVYRFISIEDSEEVLRAIRMAPKDKPIDLIIHTPGGLVLAATQIAKALKDHPAETRVIVPHYAMSGGTLIALAADKIIMDPHAVLGPVDPQLGQYPAPSIVRAVEKKGVDKVDDQTLILADVAEKAIRQVRDFIFNLLKDKYGEEKAKELAQVLTEGRWTHDYPITVEEAKKLGLNVSTDVPEEVYALMELYKQPIRQRGTVEFVPYPMKQEGKHEGHHHHHH", "soluble on expression in E. coli": "soluble"}
{"sequence": "MSLKWSITQLRKYQGKPFEFDQTVSFDNLKESLDLIDLSPITIQGQLTIKSTEVVADIHITGTYTMPCARTLVPVKVPLDVTTTEVFDLEGYNQYNDDQDDVDEHYHIIKDGMVNLQDIVEDIVIIEKPMRAYSEQSDQMLTVGNGWEVIDEDQLDELAKQQEQDDSESRQVDPRLQKLQQLYDKEQEGHHHHHH", "soluble on expression in E. coli": "soluble"}
{"sequence": "KDCASDGTLSAVGSLETPEKKQSESSRGRKRKAENQNESSQGKSIGGRGHKISDYFEYQGGNGSSPVRGIPPAIRSPQNSHSHSTPSSSVRPNSPSPTALAFGDHPIVQPKQLSFKIIQTDLTMLKLAALESNKIQDLEKKEGRIDDLLRANCDLRRQIDEQQKLLEKYKERLNKCISMSKKLLIEKSTQEKLSSREKSMQDRLRLGHFTTVRHGASFTEQWTDGFAFQNLVKQQEWVNQQREDIERQRKLLAKRKPPTANNSQAPSTNSEPKQRKNKAVNGAENDPFVRPNLPQLLTLAEYHEQEEIFKLRLGHLKKEEAEIQAELERLERVRNLHIRELKRINNEDNSQFKDHPTLNERYLLLHLLGRGGFSEVYKAFDLYEQRYAAVKIHQLNKSWRDEKKENYHKHACREYRIHKELDHPRIVKLYDYFSLDTDTFCTVLEYCEGNDLDFYLKQHKLMSEKEARSIVMQIVNALRYLNEIKPPIIHYDLKPGNILLVDGTACGEIKITDFGLSKIMDDDSYGVDGMDLTSQGAGTYWYLPPECFVVGKEPPKISNKVDVWSVGVIFFQCLYGRKPFGHNQSQQDILQENTILKATEVQFPVKPVVSSEAKAFIRRCLAYRKEDRFDVHQLANDPYLLPHMRRSNSSGNLHMAGLTASPTPPSSSIITY", "soluble on expression in E. coli": "soluble"}
{"sequence": "MYLKARQDELTESTIQSQEYRLEAFEQFCREEGIENLNDLSGRDLYAYRVWRREGNGKGRDEIEPITLRGQLATVRSFLRFAAEVDAVPEDLRTKVPLPTILEHHHHHH", "soluble on expression in E. coli": "not soluble"}
{"sequence": "MTLPVRKSLHDAVLQASKADTWEQATKEWNEVSFIFNGIGRSNCVCGNAIKYAYELFNGVTGQRLFPIGSDCVRHFHRLSLDQQLEEEEKLLRKVENLTRKAQKKEKIKVNKSNFDERLLKWLWEKGVFKPNRGNQFAPERDYQLFLEVFQGGSWTKAEPKKKARMEEVLEKCIKPFLLGKSDDQLYLVKLGKEKIDYEQELRIQAEKERKKRDKIAKQYADNLVLAMGPAERAYQDYFGFTETLTQEERKWEKILFGKNRAERAIKAKQYQKELEKDQRIASQDPIERKQKQTWILNSYFRELPEEKARFSRLLLEYRKSGEVPFSTEYLSDHLIDFFYKMKAFEFEIAPEQVRDFLKKSLQEDHRSSAQGSWIEGILLNCLKPFLERLVI", "soluble on expression in E. coli": "not soluble"}
{"sequence": "MGSDKIHHHHHHMKKAIGILCYPSVGGSGVVATELGMKLADRGHDVHFITSSIPFRLTEYRPNITVHLVEVNQYSVFKYPPYDITLASKVAEVIDLFDLDIIHAHYAVPHAVCAELGRNMAKKKGVGVVTTLHGTDITVIGQDLEMQPAIRYGIESSDAVTAVSESLALETNITLNGQYAIEVIPNSIDESMYYPMRDERLKRHYGIEPDEIVVIHISNFRPVKRIDDTIAAFAIASKDRAMRLLLVGDGPEMGQTRRRAKELGIYDKIIFAGKQEHVAQLLAISDIHLLLSEKEAFGLVVLEAMAVGVPSVVSSAGGLPEVIQDGKTGFIVPTYDVKTAADRIGKLADDAALREELAEEGIRDTRRRFDSNQVVRAYELLYERVCAQYENA", "soluble on expression in E. coli": "not soluble"}
{"sequence": "MGSDKIHHHHHHMKALIFDVDDTLYDQIQPFERALERHIEVAREQIEPLYLSFRRYADEVFEATAIGKMSLKDSHIYRMKHALADFGYQVSDATALAIQIDYDYFQGQIELSPVFPEIFSWCQAQGIAMGIITNGPYRHQLRKIRTMGLVNWFELEHVLISGQVGITKPNPAIFQLMEERLGMSGEDICYLGDSFENDVVGAKAANWKAIWFNHRKRVEPTAPYYAYYVVTDWDELVEVIQSF", "soluble on expression in E. coli": "not soluble"}
{"sequence": "MDTPPTVFSIIIPVYNRPDEVRELLESLLIQTNSDFEVIIVEDGSSVCCDKEVDRVRELLRIQYVRVPNGGPAAARNIGARMAVGEYLLILDSDVVLPSGYIAAVKKRIEQMQADAFGGPDAAAEGFSPIQKAINYAMTSFFTTGGIRGGRRVRLDKFYPRSFNFGCKLSVYRQLGGFSEEMRFGEDIDFSLRLFKAGYNVCLFPEAFVFHKRRIDFKKFFRQVYNSGIARIHLQRRHPGSMKP", "soluble on expression in E. coli": "not soluble"}
{"sequence": "MNNENKTHIADSVLDVIVVGGGINGAGIAADAAGRGLTVGLYEASDFASATSSASSKLIHGGLRYLEHYEFRLVSEALAEREVLLAKAPHIAKPMRFRLPHRPFLRPAWMIRAGLFLYDNLGKRTTLPASHSVDLAASGLLKSEITKGFEYSDCWVDDARLVILNAMAAEKNGAEVKNYCRVEKAIRVDNIWHVTVFDVQANVRFERKARALVNAAGPWVKQFFDDSLEDESPRNIRLVKGSHIVVPKIHNEEQAYILQNKDNRIVFVIPYMEDFSIIGTTDVEYKGDPRKVEISEEEVNYLIDVVNQHFVDQIKRDDVVWTYSGVRPLCDDESDSPQAITRDYTLELEQELDQAPLLSIFGGKLTTYRKLGETAMKMLNPYFAKMGTPWTRNVALPGGDFDYPRHQLVDNICCKHPWLAKETVTRYVNQFGTLTWTLLEGIECQSDMGELFAQGVYQAEIDYLIKHEFAKNAEDVLWRRTKLGLYLTEEEEKQIALYIESYLSHRHKVKLQNVILEHHHHHH", "soluble on expression in E. coli": "soluble"}
{"sequence": "MAHHHHHHMPPLTLEQVLARSMRLPRKHMKHTATPMASNPAIGISTPLDNSLGRGDKSVAKLFSLIEKDEESTAAGRPFIHQSNNLIRNSHDLLTYLHTAKRMRAWEDALRSFAEVTKMLLINQTEEGDGVSLTLREGAEGAEGVTASVSHLALLLDTCASAKQWHLVEQIGEIFRSQSRQTLIDAVAVLANTKKETIGEGLYGWERALHFLQTRIPPEEQPVEAYNACIAACETALEWEGALAIVRSMGPNPLQNLDSKVFSGTTGIGVASAGSTVEGVSSSLGTEAREESVLATFPPPVPDVVTYATLISVLEQSGKEALASEVLQRLPPVEKEEITASYAALIHVWSEQKYRNHRRRF", "soluble on expression in E. coli": "not soluble"}
{"sequence": "GSHMQPMQAMKIERGTILTQPGVFGVFTMFKLRPDWNKVPAMERKGAAEEVKKLIEKHKDNVLVDLYLTRGLETNSDFFFRINAYDLAKAQTFMREFRSTTIGKNADVFETLVGVTKPLNYISKDKSPGLNAGLSSATYSGPAPRYVIVIPVKKNAEWWNMSPEERLKEMEVHTTPTLAYLVNVKRKLYHSTGLDDTDFITYFETDDLTAFNNLMLSLAQVKENKFHVRWGSPTTLGTIHSPEDVIKALAD", "soluble on expression in E. coli": "soluble"}
{"sequence": "MEPLMNQSLHICGCCKRELPHEAFYTNKRTGTLDNYCKECRKANTRKRRDLRRCTSFENKPVSYPVITEVKDPALRMLLILHARQVVAESISRKQEKEKLNTLWEE", "soluble on expression in E. coli": "not soluble"}
{"sequence": "MSKLFSEYKLKDVTLKNRIVMSPMCMYSVENKDGIATDFHFAHYVSRAAGGTGLVILEATAVQEVGRISEFDLGLWNDEQVPALKKLVGGLHYHGAKAGIQLAHAGRKAVLPGEIVAPSAIAFDEKSDKPVELTKEAIKEVVADFKRAAYRAKEAGFDVIEIHAAHGYLIHQFLSPITNRREDNYGGPAGNRYKILSDIIKAVKEVWDGPIIVRVSATDYAHGGLQLEDHIPFAKWMKADGVELIDVSTGGLVNVAPPVFPGYQVPFADEIRRGAGIATGALGLITRGEQAEEILCNERADLIIVGRELLRNPYFAKDAAKQLGETIEAPKQYSRAWK", "soluble on expression in E. coli": "not soluble"}
{"sequence": "MGVANDSSPEYRWMSPHRLSDTVILGDCLYFNNIMSQLDLHQNWAPSVRLLNYFKNFNKETLLKIEENDYINSSFFQQKDKRFYPINDDFYHISTGGYGIVFKIDNYVVKFVFEATKLYSPMETTAEFTVPKFLYNNLKGDEKKLIVCAWAMGLNYKLTFLHTLYKRVLHMLLLLIQTMDGQELSLRYSSKVFLKAFNERKDSIKFVKLLSHFYPAVINSNINVINYFNRMFHFFEHEKRTNYEYERGNIIIFPLALYSADKVDTELAIKLGFKSLVQYIKFIFLQMSLLYIKIYELPCCDNFLHADLKPDNILLFDSNEPIIIHLKNKKFVFNERIKSALNDFDFSQVAGIINKKIKNNFKVEHNWYYDFHFFVHTLLKTYPEIEKDIEFSTALEEFIMCTKTDCDKYRLKVSILHPISFLEKFIMRDIFSDWINGGN", "soluble on expression in E. coli": "not soluble"}
{"sequence": "MNCMWCDSTEAKESLNTVYWELPDGTKAIEIQETPCISCSSCGMDYQSDHTVKEIEDQLFLIYTKDLPKQLTYEELMGRPRLLKRNYFDF", "soluble on expression in E. coli": "not soluble"}
{"sequence": "NKSYRSTEQITNFAKALLPDGDQIQAFTRKGDLPKVMIRYGEDAALSSLRSEVEHQLKATNTVAVLTKDLAESKQVYQYLKRYTVTTLMADSDRTMPQGVIVMPIYLAKGLEFDAVVAYDVSATNYPDADSVGILYTIASRAMHHLTLLSIGDVSPLIAQLDPTLFTIEHQVRV", "soluble on expression in E. coli": "not soluble"}
{"sequence": "MTEAQRHQILLEMLAQLGFVTVEKVVERLGISPATARRDINKLDESGKLKKVRNGAEAITQQRPRWTPMNLHQAQNHDEKVRIAKAASQLVNPGESVVINCGSTAFLLGREMCGKPVQIITNYLPLANYLIDQEHDSVIIMGGQYNKSQSITLSPQGSENSLYAGHWMFTSGKGLTAEGLYKTDMLTAMAEQKMLSVVGKLVVLVDSSKIGERAGMLFSRADQIDMLITGKNANPEILQQLEAQGVSILRVLEHHHHHH", "soluble on expression in E. coli": "not soluble"}
{"sequence": "MGEKRKTRQAEVNIGMVGHVDHGKTTLTKALTGVWTDTHSEELRRGITIKIGFADAEIRRCSNCGRYSTSPICPYCGHETEFIRRVSFIDSPGHEALMTTMLAGASLMDGAILVIAANEPCPRPQTREHLMALQIIGQKNIIIAQNKIELVDKEKALENYRQIKEFIKGTVAENAPIIPISALHGANIDVLVKAIEEFIPTPKRDSNKPPKMLVLRSFDVNKPGTPPEKLVGGVLDGSIVQGKLKVGDEIEIRPGVPYEEHGRIKYEPITTEIVSLQAGGQFVEEAYPGGLVGIGTKLDPYLTKGDLMAGNVVGKPGKLPPVWTDLRLEVHLLERVVGTEQELNVEPIKRKEVLLLNVGTARTMGLVTALGKDEIELKLQIPVCAEPGERVAISRQIGSRWRLIGYGIIKELEHHHHHH", "soluble on expression in E. coli": "soluble"}
